From US20060211075A1, “Enzyme sensors including environmentally sensitive or fluorescent labels and uses thereof” (The Albert Einstein College of Medicine of Yeshiva …, priority 2005, published 2006)
Starred links: 1 amine or outer side, 2 acyl side, 3 side chain; linkers in the order of their positions; H or OH if unused. Non-standard residues stand in square brackets, D forms with d. pY = N[C@@H](Cc1ccc(OP(=O)(O)O)cc1)C(=O)O; Cysteamide = C(CS[*:3])N[*:1]; Dap = NC[C@H](N)C(=O)O

Biological target: GST-Lck-SH2 (UniProt P06239)
Assay: fluorescence change on Src-catalysed phosphorylation in presence of GST-Lck-SH2 (1.25 µM peptide, 5 µM Lck-SH2, 12 nM Src, 1 mM ATP)

Sequence of GST-Lck-SH2 (P06239 127-224): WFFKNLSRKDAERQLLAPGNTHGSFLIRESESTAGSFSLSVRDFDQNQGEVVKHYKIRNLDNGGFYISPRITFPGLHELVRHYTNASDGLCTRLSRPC

Ac-EEEI[pY][Dap](dapoxyl)EIEA-Cysteamide (not fully specified)
Fold change in fluorescence intensity: 0.6 fold
